Publication PMC10786891, “Massively parallel profiling of RNA-targeting CRISPR-Cas13d”
Substitutions are numbered along the chain they refer to. Names may count otherwise.

T1: EsCas13d, nuclease-dead (Eubacterium siraeum, UniProt B0MS50, R295A;H300A;R849A;H854A)
T1 sequence: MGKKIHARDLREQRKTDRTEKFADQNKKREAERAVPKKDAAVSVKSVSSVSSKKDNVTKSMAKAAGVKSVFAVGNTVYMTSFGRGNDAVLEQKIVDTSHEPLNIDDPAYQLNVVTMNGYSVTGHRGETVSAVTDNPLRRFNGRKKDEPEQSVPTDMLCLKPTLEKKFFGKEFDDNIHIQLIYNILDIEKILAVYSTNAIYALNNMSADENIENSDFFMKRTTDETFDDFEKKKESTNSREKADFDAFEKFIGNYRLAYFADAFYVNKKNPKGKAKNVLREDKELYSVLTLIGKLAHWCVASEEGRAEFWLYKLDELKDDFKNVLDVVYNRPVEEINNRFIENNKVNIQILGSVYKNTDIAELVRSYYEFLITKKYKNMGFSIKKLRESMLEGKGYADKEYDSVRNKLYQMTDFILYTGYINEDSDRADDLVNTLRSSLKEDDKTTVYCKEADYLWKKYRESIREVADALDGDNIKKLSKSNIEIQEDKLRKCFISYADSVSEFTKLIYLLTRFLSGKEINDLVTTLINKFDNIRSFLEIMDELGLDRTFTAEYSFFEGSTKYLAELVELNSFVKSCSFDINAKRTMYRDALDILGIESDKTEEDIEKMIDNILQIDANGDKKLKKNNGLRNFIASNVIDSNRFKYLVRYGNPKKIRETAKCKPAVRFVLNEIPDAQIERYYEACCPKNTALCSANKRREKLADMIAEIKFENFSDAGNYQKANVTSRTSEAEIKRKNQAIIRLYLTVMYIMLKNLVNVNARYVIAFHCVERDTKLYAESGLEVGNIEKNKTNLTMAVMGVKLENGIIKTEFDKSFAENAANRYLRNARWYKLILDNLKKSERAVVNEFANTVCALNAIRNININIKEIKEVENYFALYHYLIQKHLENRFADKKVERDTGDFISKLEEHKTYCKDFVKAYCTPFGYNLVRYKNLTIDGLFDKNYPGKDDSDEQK

B1: target 1 MT 5'PFS GUC 3'PFS UGA (mixed)
RNA 1: CACCCGUGCAAAAAUGCAGGGGUCUAAAACUGAGCGGAUAACCUCUCUAUGG
RNA 2: GGGAAUGGAUCCACAUCUACGAAUUCGUCCCAUAGAGAGGUUAUCCGCUCAUGAAGAUCGGAAGAGCACACGU
B2: target 1 MT 5'PFS GUC 3'PFS CCA (mixed)
RNA 1: B1 RNA 1
RNA 2: B1 RNA 2 with U52C, G53C
B3: target 1 MT 5'PFS AGA 3'PFS CCG (mixed)
RNA 1: B1 RNA 1
RNA 2: B1 RNA 2 with G27A, U28G, C29A, U52C, G53C, A54G
B4: target 1 insG 3' of 9,insU 3' of 1 (mixed)
RNA 1: B1 RNA 1
RNA 2: GGGAAUGGAUCCACAUCUACGAAUUCGUACCAUAGAGAGGUUAGUCCGCUCAUCCGAGAUCGGAAGAGCACACGU
B5: target 1 MT 5'PFS UUU 3'PFS AUC (mixed)
RNA 1: B1 RNA 1
RNA 2: B1 RNA 2 with G27U, C29U, U52A, G53U, A54C
B6: target 1 MT 5'PFS GUG 3'PFS UGG (mixed)
RNA 1: B1 RNA 1
RNA 2: B1 RNA 2 with C29G, A54G
B7: target 1 MT 5'PFS GAG 3'PFS AUA (mixed)
RNA 1: B1 RNA 1
RNA 2: B1 RNA 2 with U28A, C29G, U52A, G53U
B8: target 1 MT 5'PFS GGC 3'PFS AUC (mixed)
RNA 1: B1 RNA 1
RNA 2: B1 RNA 2 with U28G, U52A, G53U, A54C
B9: target 1 MT 5'PFS GGC 3'PFS CAC (mixed)
RNA 1: B1 RNA 1
RNA 2: B1 RNA 2 with U28G, U52C, G53A, A54C
B10: target 1 MT 5'PFS GUC 3'PFS CCC (mixed)
RNA 1: B1 RNA 1
RNA 2: B1 RNA 2 with U52C, G53C, A54C
B11: target 1 MT 5'PFS GAC 3'PFS CCC (mixed)
RNA 1: B1 RNA 1
RNA 2: B1 RNA 2 with U28A, U52C, G53C, A54C
B12: target 1 MT 5'PFS GGC 3'PFS AAG (mixed)
RNA 1: B1 RNA 1
RNA 2: B1 RNA 2 with U28G, U52A, G53A, A54G
B13: target 1 MT 5'PFS GCC 3'PFS UAG (mixed)
RNA 1: B1 RNA 1
RNA 2: B1 RNA 2 with U28C, G53A, A54G
B14: target 1 MT 5'PFS UAU 3'PFS UCC (mixed)
RNA 1: B1 RNA 1
RNA 2: B1 RNA 2 with G27U, U28A, C29U, G53C, A54C
B15: target 1 MT 5'PFS GCC 3'PFS UAU (mixed)
RNA 1: B1 RNA 1
RNA 2: B1 RNA 2 with U28C, G53A, A54U
B16: target 1 MT 5'PFS GUC 3'PFS CCU (mixed)
RNA 1: B1 RNA 1
RNA 2: B1 RNA 2 with U52C, G53C, A54U
B17: target 1 MT 5'PFS AUG 3'PFS CAC (mixed)
RNA 1: B1 RNA 1
RNA 2: B1 RNA 2 with G27A, C29G, U52C, G53A, A54C
B18: target 1 MT 5'PFS GGC 3'PFS AUG (mixed)
RNA 1: B1 RNA 1
RNA 2: B1 RNA 2 with U28G, U52A, G53U, A54G
B19: target 1 MT 5'PFS GGC 3'PFS AUA (mixed)
RNA 1: B1 RNA 1
RNA 2: B1 RNA 2 with U28G, U52A, G53U
B20: target 1 MT 5'PFS GCG 3'PFS AGA (mixed)
RNA 1: B1 RNA 1
RNA 2: B1 RNA 2 with U28C, C29G, U52A
B21: target 1 MT 5'PFS GUG 3'PFS UGC (mixed)
RNA 1: B1 RNA 1
RNA 2: B1 RNA 2 with C29G, A54C
B22: target 1 MT 5'PFS CCA 3'PFS AGU (mixed)
RNA 1: B1 RNA 1
RNA 2: B1 RNA 2 with G27C, U28C, C29A, U52A, A54U
B23: target 1 MT 5'PFS GUC 3'PFS CCG (mixed)
RNA 1: B1 RNA 1
RNA 2: B1 RNA 2 with U52C, G53C, A54G
B24: target 1 MT 5'PFS GCG 3'PFS AGG (mixed)
RNA 1: B1 RNA 1
RNA 2: B1 RNA 2 with U28C, C29G, U52A, A54G
B25: target 1 MT 5'PFS GUG 3'PFS UGA (mixed)
RNA 1: B1 RNA 1
RNA 2: B1 RNA 2 with C29G
B26: target 1 MT 5'PFS GAG 3'PFS AUC (mixed)
RNA 1: B1 RNA 1
RNA 2: B1 RNA 2 with U28A, C29G, U52A, G53U, A54C
B27: target 1 C4G,G15A (mixed)
RNA 1: B1 RNA 1
RNA 2: B1 RNA 2 with C29A, G37A, C48G, U52C, G53C, A54G
B28: target 1 MT 5'PFS AGC 3'PFS AGG (mixed)
RNA 1: B1 RNA 1
RNA 2: B1 RNA 2 with G27A, U28G, U52A, A54G
B29: target 1 MT 5'PFS GAG 3'PFS AUU (mixed)
RNA 1: B1 RNA 1
RNA 2: B1 RNA 2 with U28A, C29G, U52A, G53U, A54U
B30: target 1 MT 5'PFS GCC 3'PFS UAA (mixed)
RNA 1: B1 RNA 1
RNA 2: B1 RNA 2 with U28C, G53A
B31: target 1 insA 3' of 5,insC 3' of 3 (mixed)
RNA 1: B1 RNA 1
RNA 2: B4 RNA 2 with G44U, U45C, C47G, G48A, A52C, U53A
B32: target 1 MT 5'PFS GUG 3'PFS UGU (mixed)
RNA 1: B1 RNA 1
RNA 2: B1 RNA 2 with C29G, A54U
B33: target 1 MT 5'PFS GUC 3'PFS UGU (mixed)
RNA 1: B1 RNA 1
RNA 2: B1 RNA 2 with A54U
B34: target 1 MT 5'PFS AGA 3'PFS CCU (mixed)
RNA 1: B1 RNA 1
RNA 2: B1 RNA 2 with G27A, U28G, C29A, U52C, G53C, A54U
B35: target 1 MT 5'PFS GCG 3'PFS AGC (mixed)
RNA 1: B1 RNA 1
RNA 2: B1 RNA 2 with U28C, C29G, U52A, A54C
B36: target 1 MT 5'PFS CCU 3'PFS ACC (mixed)
RNA 1: B1 RNA 1
RNA 2: B1 RNA 2 with G27C, U28C, C29U, U52A, G53C, A54C
B37: target 1 MT 5'PFS GCC 3'PFS UAC (mixed)
RNA 1: B1 RNA 1
RNA 2: B1 RNA 2 with U28C, G53A, A54C
B38: target 1 MT 5'PFS GCG 3'PFS AGU (mixed)
RNA 1: B1 RNA 1
RNA 2: B1 RNA 2 with U28C, C29G, U52A, A54U
B39: target 1 MT 5'PFS GGC 3'PFS AUU (mixed)
RNA 1: B1 RNA 1
RNA 2: B1 RNA 2 with U28G, U52A, G53U, A54U
B40: target 1 MT 5'PFS GAC 3'PFS CCU (mixed)
RNA 1: B1 RNA 1
RNA 2: B1 RNA 2 with U28A, U52C, G53C, A54U

Target: T1, EsCas13d, nuclease-dead
Test: crRNA (strand 1, pre-loaded); Mg2+; 40 mM Tris-HCl pH 7.5, 150 mM NaCl, 6 mM MgCl2, 1 mM DTT, 0.1% Tween-20, 0.2 mg/ml BSA; 25 C; 10 min per concentration, then washed
Conditions: tags: His6-TwinStrep-SUMO cleaved; N-terminal SNAP kept (SNAP-Surface 488); label: 3' end held by stalled T7 RNA polymerase

Binder | Kd [nM]
B1 | 14.7 ± 3.4
B2 | ~18
B3 | 37 ± 10.5
B4 | 23.3 ± 3.4
B5 | 55 ± 18
B6 | 110 ± 19.5
B7 | 34 ± 8.5
B8 | 42.5 ± 8.5
B9 | ~17
B10 | 19 ± 9
B11 | ~37
B12 | 36 ± 10
B13 | 21.8 ± 6.1
B14 | 36 ± 13.5
B15 | 10.8 ± 2.45
B16 | 15.3 ± 2.6
B17 | ~29.5
B18 | 22.5 ± 7
B19 | 16.6 ± 2.05
B20 | 26.4 ± 4.8

Binder | Kd [nM]
B21 | 9.4 ± 0.45
B22 | 14 ± 5.9
B23 | 14.8 ± 2.55
B24 | 100 ± 50
B25 | 14.9 ± 1.15
B26 | ~60
B27 | 13.2 ± 1.2
B28 | ~60
B29 | 36 ± 11
B30 | 16 ± 6
B31 | 12.3 ± 2.2
B32 | 27.1 ± 2.4
B33 | 21.5 ± 5
B34 | ~64.5
B35 | 37 ± 11
B36 | ~14
B37 | 16 ± 5.5
B38 | 29.5 ± 7
B39 | 19.6 ± 4.75
B40 | ~14
